The values that follow come from patent US20140051834A1, “Incretin Receptor Ligand Polypeptide Fc-Region Fusion Polypeptides And Conjugates With Altered Fc-Effector Function” (Hoffman-La Roche, Inc., priority 2012, published 2014).

One test deals with FcγRIIIA-V158 (human) (UniProt P08637). The test is described as follows: SPR (BIAcore T100, 25 °C); antibody immobilised, receptor as analyte, steady state fit.
The target of another test is FcγRIIA-R131 (human) (UniProt P12318). The test is described as above.
The target in a further test is FcγRI (human) (UniProt P12314). The test is described as follows: SPR (BIAcore T100, 25 °C); FcγRI captured by pentaHis antibody, antibody as analyte.
FcγRI (human), sequence (P12314 16-288 limits assumed): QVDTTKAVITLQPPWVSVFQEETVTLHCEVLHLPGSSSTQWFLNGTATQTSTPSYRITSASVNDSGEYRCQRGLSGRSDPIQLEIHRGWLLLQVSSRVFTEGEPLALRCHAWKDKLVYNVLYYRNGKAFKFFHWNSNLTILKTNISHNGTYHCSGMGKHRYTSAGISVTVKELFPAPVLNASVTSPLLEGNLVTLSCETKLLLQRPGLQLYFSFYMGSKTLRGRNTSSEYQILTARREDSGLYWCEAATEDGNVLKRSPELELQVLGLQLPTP

FcγRIIA-R131 (human), sequence (P12318 36-218 H167R limits assumed): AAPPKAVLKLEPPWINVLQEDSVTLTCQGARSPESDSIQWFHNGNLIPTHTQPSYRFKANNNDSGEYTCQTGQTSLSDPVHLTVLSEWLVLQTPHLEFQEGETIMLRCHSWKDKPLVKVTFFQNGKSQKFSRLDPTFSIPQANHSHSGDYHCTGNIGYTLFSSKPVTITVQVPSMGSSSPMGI
IgG4 SPLE (antibody of Tables 1a and 1b, specificity not named), sequence (Fc): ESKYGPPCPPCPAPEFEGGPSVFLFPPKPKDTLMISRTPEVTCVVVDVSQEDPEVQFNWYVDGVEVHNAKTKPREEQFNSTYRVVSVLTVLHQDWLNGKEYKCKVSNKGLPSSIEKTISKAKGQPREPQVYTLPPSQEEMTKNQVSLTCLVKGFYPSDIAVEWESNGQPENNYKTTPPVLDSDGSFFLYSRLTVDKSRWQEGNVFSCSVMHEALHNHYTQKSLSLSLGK
FcγRIIIA-V158 (human), sequence (P08637 17-208 F176V limits assumed): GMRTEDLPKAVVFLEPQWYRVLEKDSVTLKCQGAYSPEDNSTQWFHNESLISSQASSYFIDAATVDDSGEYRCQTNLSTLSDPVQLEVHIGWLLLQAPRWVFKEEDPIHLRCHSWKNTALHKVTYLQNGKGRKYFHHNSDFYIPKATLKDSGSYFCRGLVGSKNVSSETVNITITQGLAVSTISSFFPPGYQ

Turning to “IgG1 P329A ge (antibody of Table 1a, specificity not named)”, the Kd – broadly, the concentration at which binding is half-saturated – with FcγRIIIA-V158 (human) came to 1800 nM; in the test with FcγRIIA-R131 (human), 4400 nM; in the test with FcγRI (human), 8 nM.
On to “IgG1 P329G (antibody of Tables 1a and 1b, specificity not named)”, for which, in the test with FcγRI (human), the Kd was found to be 6 nM.
Same read-out and setting: the value for “IgG1 P329G ge (antibody of Table 1a, specificity not named)” was 10 nM.
“IgG4 SPLE (antibody of Tables 1a and 1b, specificity not named)” gave a Kd with FcγRIIA-R131 (human) of 10000 nM.
As for anti-CD20 antibody IgG1 P329G, the Kd in the test with FcγRI (human) is 5.7 nM.
